These results are taken from the supplement of paper PMC12455559.

The nature of series [1]: melting temperature (DSF); higher = more thermostable. How it is done:
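Candidate PET hydrolases were expressed in E. coli C41(DE3) in 2 mL autoinduction cultures in 24-deep-well plates, Ni-bead purified and released by SUMO protease cleavage on an OT-2 robot. Yield per well was measured by BCA; values below 25 ug (0.1 mg/mL) are below the detection threshold. Melting temperature was measured by differential scanning fluorimetry with Sypro Orange, ramping from 25 C at 0.3 C/step.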

Series [2] can be described thus: purified protein yield per well (BCA); higher = higher soluble expression. The procedure, abridged:
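On an OT-2 robot, lysed cells were processed by binding protein to Ni-charged magnetic beads and releasing it with SUMO protease. Expression took place in E. coli C41(DE3), in 2 mL autoinduction cultures with 100 µg/mL kanamycin, for 2 h at 37 °C followed by 40 h at 18 °C. The Pierce Rapid Gold BCA kit was used to quantify purified protein yield in each well, with values under 25 ug (0.1 mg/mL) below the detection threshold.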

Series [3] can be described thus: PET hydrolysis, aromatic products released after 48 h (umol product/mg enzyme); higher = more PET depolymerization activity. The method, then: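 HTP-purified, SUMO-cleaved, tagless PET hydrolase candidates (5 ug, 1.43 mg/g PET) were incubated 48 h without shaking with 3.5 mg amorphous PET film (aFilm) or crystalline PET powder (cryPow) in 0.5 mL buffer: NaCitrate pH 4.5/5.5, NaPhosphate pH 6.5/7.5, glycine pH 8.5. Incubation was at 40 or 60 C. Aromatic products (TPA, MHET, BHET) in the supernatant were quantified by UV absorbance at 260/280 nm relative to buffer blanks and expressed per mg enzyme. LCC-ICCG was the positive control on every plate.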

[4] abbreviates: substrate: cryPow, 40 °C, pH 4.5.
[5] abbreviates: substrate: cryPow, 40 °C, pH 5.5.
[6] abbreviates: substrate: cryPow, 40 °C, pH 6.5.
Where [7] appears, read: substrate: cryPow, 40 °C, pH 7.5.
Setting [8] is: substrate: cryPow, 60 °C, pH 4.5.
Where [9] appears, read: substrate: cryPow, 60 °C, pH 5.5.
The mark [10] stands for this setting: substrate: cryPow, 60 °C, pH 6.5.
Where [11] appears, read: substrate: cryPow, 60 °C, pH 7.5.
Setting [12] is: substrate: aFilm, 40 °C, pH 4.5.
The mark [13] stands for this setting: substrate: aFilm, 40 °C, pH 5.5.
Setting [14] is: substrate: aFilm, 40 °C, pH 6.5.
The mark [15] stands for this setting: substrate: aFilm, 40 °C, pH 7.5.
Where [16] appears, read: substrate: aFilm, 60 °C, pH 4.5.
The mark [17] stands for this setting: substrate: aFilm, 60 °C, pH 5.5.
Where [18] appears, read: substrate: aFilm, 60 °C, pH 6.5.
Setting [19] is: substrate: aFilm, 60 °C, pH 7.5.

± gives the standard deviation of the averaged measurements.

The sequence “SPSPGTPGGDNPYQRGPDPTVASVAAQYGPFATAQITVPPGNGFNGGFIYYPTDTSHTYGAVAIVPGYTALFADEEAWMGPRLASFGFVVIGVETNSRTDYDTARGTQLLAALDYLTNSSAVRDRVDRNRLSVIGHSMGGGGSLYAATQRPSLKAAIGLAPFKPSGNLASDTVPTMIIGGINDTTVTPSYLDGLYPTLPAATPGAYLQLANADHLYFTRPNDIELRSQIEWLKIFVDNDTRYTPFLCPSVKDTTGIVRSSVKCSTVPGGGSTPSSSRILGTQSGRCVDVPGATHNNGTRVQLYDCNGQANQQWTYTSSKQLTVYGTVCLDAAGSGNGSAVQIYSCNGQANQQWNVNANGTITGVQSGRCLDVWGTGNGQQIQIYDCNGQANQKFSLN [ESM136]” registered a melting temperature in series [1] of 55.6 C. In addition, in series [2], the “purified protein yield per well” value worked out at 61.4 µg. In addition, the PET hydrolysis is 5 in series [3] (setting [4]); 18 in series [3] (setting [5]); 13 in series [3] (setting [6]); < 3 in series [3] (setting [7]); < 3 in series [3] (setting [8]); < 3 in series [3] (setting [9]). Also, the PET hydrolysis in series [3] (setting [10]) and in series [3] (setting [11]) was < 3 each time.

“ADNPFQRGPNPTVESVAATRGTFATAQTSVPAGNGFGGGVVYYPTDTSQGTFGGVAIVPGYSALFADEEAWMGPWLASFGFVVIGIETNSRTDSADARGTQLLAALDYLTQRSPVRDRVDPNRLSVVGHSAGGAGVLSALLRRPSLKAGVGLAPGSPVGNYDLYDDRVPTMFISGQRDTTVTRSYLNGLYGTLPATTPSAWVEITGVDHLFATRANTTEMRVLIPWLKIWVDDDTRYTRFLCPLADSTGISMYRDTCPYVPPGGSSPSPSASPSPSPSPSPSPSPSPSPSPSPSPSPSPSPSASPSASPSPPPPGACAAEYHTVNSWPGGYQASVTVTAGASAVQGWTVRWTLGSGQSITQLWNGTLSTSGSAVTVKNASYNGTIPASGSATFGFLATGTPSAPPLTCTSP [ESM067]” had a melting temperature in series [1] of 57.1 C. In addition, the “purified protein yield per well” value in series [2] was determined as 447 µg. In addition, the PET hydrolysis in series [3] (setting [12]), in series [3] (setting [13]), in series [3] (setting [14]), in series [3] (setting [15]), in series [3] (setting [16]) and in series [3] (setting [17]) was < 3 in each case. Also, the PET hydrolysis in series [3] (setting [18]), in series [3] (setting [19]), in series [3] (setting [4]), in series [3] (setting [5]), in series [3] (setting [6]) and in series [3] (setting [7]) was < 3 in each case. For the same sequence, the PET hydrolysis in series [3] (setting [8]), in series [3] (setting [9]), in series [3] (setting [10]) and in series [3] (setting [11]) was < 3 throughout.

With “ADNPYERGPDPTPASVAAPNGPFATAQVSVPPGYGFNGGMIYYPTDTSQGTFGAIAISPGYTALFSVELAWMGPRLASQGFVVIGIETNDRNDFDTARGTQLLAALDYLTGQSSVRSRVDPNRLAVAGHSMGGGGAFSAALRRPALKAAVGFTPFSPSQNLTNMQVPALLYSGQNDTVTTPSSVSNLYNGLPSTTEGAYLEAAGLDHSFPTRPNTLLMRTMIPWVKIFLDNDLRYTQFLCPLMDSSGVLQYRNTCPLVPPGLPSPSPTTAPPTTAPPTTAPPTTAPPTTAPPTTAPPTTAPPAGACTATYQTIGSWPGGFQGEVTVRAGNSAINGWTVGWSLGSGQSITQIWNGTLSTSGSSVSVRNVSYNGSLPAAGTVTFGFLGSGSPSTPSTVTCTSP [ESM012]”, the melting temperature in series [1] amounted to 60.7 C. Moreover, the “purified protein yield per well” value in series [2] turned out to be 519 µg. For the same sequence, the PET hydrolysis in series [3] (setting [12]), in series [3] (setting [13]), in series [3] (setting [14]), in series [3] (setting [15]), in series [3] (setting [16]) and in series [3] (setting [17]) was < 3 each time. The PET hydrolysis in series [3] (setting [18]) was < 3; in series [3] (setting [19]) it was < 3; in series [3] (setting [4]), < 3; in series [3] (setting [5]), 9.5 ± 3.5; in series [3] (setting [6]), 21.5 ± 3.5; in series [3] (setting [7]), 21.5 ± 0.71. Besides, the PET hydrolysis in series [3] (setting [8]), in series [3] (setting [9]), in series [3] (setting [10]) and in series [3] (setting [11]) was < 3 in each case.

The sequence “ADNPYQRGPNPTLASVAATRGTFATAQINVPGGNGFGSGVIYYPTDTSQGTFGGVAIVPGYSALFANEEAWMGPWLASFGFVVIGIETNSRTDSADARGTQLLAALDYLTQRSSVRDRVDPSRLSVVGHSAGGAGVLSAVIRRPSLKAAVGLAPGSPVGNYELSADKVPLMFISGQKDTTVTQSYLNGLYTTIPASTPSAWVEITGVDHLFATRANTTEMRVLIPWLKIFLDNDTRYTQFLCPLADSSGISMYRNKCPYVPPGGSSPSPSATPSPSVSPSASPSASPSASPSVSPSASPSVSPSASPSASPSSQPSGACTASYKTVNSWPGGYQGEVTVTAGSAAINGWTVRWTLGSGQSVSQVWNGTLTTSGSTVTVKNVSYNGSLPAAGSATFGFLANGTASTPAVTCTSP [ESM004]” had a melting temperature in series [1] of 55.9 C. Further, the “purified protein yield per well” value in series [2] amounted to 375 µg. Moreover, the PET hydrolysis in series [3] (setting [12]), in series [3] (setting [13]), in series [3] (setting [14]), in series [3] (setting [15]), in series [3] (setting [16]) and in series [3] (setting [17]) was < 3 throughout. Moreover, the PET hydrolysis in series [3] (setting [18]), in series [3] (setting [19]), in series [3] (setting [4]), in series [3] (setting [5]), in series [3] (setting [6]) and in series [3] (setting [7]) was < 3 in each case. Moreover, the PET hydrolysis in series [3] (setting [8]), in series [3] (setting [9]), in series [3] (setting [10]) and in series [3] (setting [11]) was < 3 throughout.
